Measurements as given in patent US9301917B2, “Sustained-release pharmaceutical composition” (Kyoto University, priority 2010, dated 2016).

Tests used:
[1] = Influence of formulation procedure on drug release rate in vivo (Example 3); conditions: 100 μL to dorsal subcutis of mice, 1 hour; lysozyme 5 mg/mL, sucrose 0.25 M, atelocollagen 3% [w/v]; different mixing orders
Description: The following three kinds of ingredients were mixed in different orders and formulated as shown in the following items a) to d): lysozyme (MW: 14 kDa); sucrose; and atelocollagen (product name: KOKEN ATELOCOLLAGEN IMPLANT).
Each of the formulations was prepared so that the final concentrations of lysozyme, sucrose, and atelocollagen were 5 mg/mL, 0.25 M, and 3% [w/v], respectively.
100 μL of each of the formulations according to the above-mentioned items a) to d) were administered to the dorsal subcutis of mice. One hour later, the formulation that underwent gelation at a body temperature was taken out, and the amount of the lysozyme remaining in the gel was measured by HPLC to calculate the release amount of the lysozyme.

[2] = Influence of sugar on drug release from collagen in vitro (Example 1); assay type: physicochemical; conditions: lysozyme 2 mg/mL, atelocollagen 3% [w/v], sucrose 0.05 M vs no sucrose; PBS external liquid, 37° C., HPLC
Description: The influence of a sugar on drug release from a collagen was confirmed through use of lysozyme (final concentration: 2 mg/mL) (Sigma-Aldrich Corporation) as a drug.
Lysozyme was dissolved in a physiological buffer (PBS, pH 7.4) containing sucrose (final concentration: 0.05 M) or a physiological buffer containing no sucrose. After that, the solution and an atelocollagen solution (final concentration: 3% [w/v]) (product name: KOKEN ATELOCOLLAGEN IMPLANT) were mixed and formulated.
Conditions for the measurement were as follows: • Initial eluent: 30% acetonitrile solution containing 0.1% triethylamine (TEA) • Final eluent: concentration-gradient elution with 45% acetonitrile solution containing 0.1% TEA • rate: 1 mL/min • Elution time: 30 minutes • Detection wavelength: 220 nm

lysozyme
release amount of the lysozyme in vivo [1]: varied depending on a change in mixing procedure | amount of the lysozyme released into the external liquid [2]: large in the case of containing sucrose as compared to the case of containing no sucrose
